{"source": "paper PMC3776556", "about": "“Crystal structures of the CPAP/STIL complex reveal its role in centriole assembly and human microcephaly” (eLife, 2013)", "molecules": {"B1": {"name": "Danio rerio STIL^429–448 (peptide)", "chain": "GQTKRVHPLVPELSMVLDGSFEFGENLYFQ", "notes": "remnant of the cloning and protease cleavage sites at the N-terminus; STIL, Danio rerio, residues 429-448; remnant of the cloning and protease cleavage sites at the C-terminus; expression and purification are told for STIL^404–448; also called C-terminal region of CR2 peptide; source: E. coli C41 BL21 (DE3), purified (NiNTA, proteolytic cleavage of the His-lipoyl domains, ion exchange); not …"}, "B2": {"name": "SAS-4^ΔTCP::GFP: C. elegans SAS-4 (aa 1–556) with TCP domain (aa 557–808) deleted, GFP fusion (protein, UniProt P34402 1-556, looked up, fragment)", "chain": "MASDENIGADGEQKPSRPFLRKGQGTARFRMPRNNKTSAGAPPTSELSSASSPSINVPRFSLSNALPNSARTVDSGISNEDETRPPTTASLPMDQPSLSSSPENRLNPAPSVAEEHGHSGQHAEEEEDNDTDEVSAMPSFVPDEPSTLVNSDHELSDDALKYKNAAAEFKAFERRMDSMRSASTITTSLATPSSCAPSNSSEPPTRSTPIMNDLGVGPNNHNWPSSMQELSGISLETPQARPLGSNRINQLVRSEAQTGISLLQHHERPTVTAPLRRNDMMNSSRQNPQNGNVQDENRPEHVYDQPIHVPGSSLDRQKLEIEIRRHRNLNIQLRDTIAHLDYAEESVHTTKRQLEEKISEVNNFKKELIEEFKKCKKGVEEEFEKKFEKIKEDYDELYEKLKRDQRDLERDQKILKKGTGERNKEFTETIATLRDKLRASETKNAQYRQDIRVRDEKLKKKDEEIEKLQKDGNRLKSTLQTLEKRVKQLRTEKERDDKEKEMFAKVAMNRKTSNPVPPVLNQSVPISITSNGPSRHPSSSSLTTFRKPSTSNRERG", "modifications": "GFP fusion", "notes": "C. elegans SAS-4 (aa 1–556) with TCP domain (aa 557–808) deleted, GFP fusion"}, "B3": {"name": "Danio rerio STIL^411–428 (peptide)", "chain": "GEDEDLSPRPSPNPHPVSQENLYFQ", "notes": "remnant of the cloning and protease cleavage sites at the N-terminus; remnant of the cloning and protease cleavage sites at the C-terminus; expression and purification are told for STIL^404–448; the same paragraph gives the extra residues of this construct; also called N-terminal region of CR2 peptide; source: E. coli C41 BL21 (DE3), purified (NiNTA, proteolytic cleavage of the His-lipoyl …)"}, "B4": {"name": "CPAP^937–1124: TCP domain of Danio rerio CPAP, residues 937–1124, recombinant, GPHM at N-terminus (protein)", "chain": "GPHMEEIMQSDSKIEKMLPDGGRLVVFPNGTRKELSADGQTVKVMFFNGDVKHTMPDQRVIYYYAEAQTTHITYPDGMEVLQFPNNQTEKHFPDGRKEITFPDQTVKTLHPDGREESVLTDGTIIQLNPDGSKVIQFNTGQREIHTADFKRREYPDGTVKTVYSDGRQETQYPTGRVRLKDPQGKVIMDTKA", "modifications": "left off: His tag, N-terminal, cleaved", "notes": "TCP domain of Danio rerio CPAP, residues 937–1124, recombinant, GPHM at N-terminus"}, "B5": {"name": "SAS-4^WT::GFP: C. elegans WT SAS-4 (aa 1–808) GFP fusion, RNAi-resistant transgene (protein, UniProt P34402 1-808, looked up)", "chain": "MASDENIGADGEQKPSRPFLRKGQGTARFRMPRNNKTSAGAPPTSELSSASSPSINVPRFSLSNALPNSARTVDSGISNEDETRPPTTASLPMDQPSLSSSPENRLNPAPSVAEEHGHSGQHAEEEEDNDTDEVSAMPSFVPDEPSTLVNSDHELSDDALKYKNAAAEFKAFERRMDSMRSASTITTSLATPSSCAPSNSSEPPTRSTPIMNDLGVGPNNHNWPSSMQELSGISLETPQARPLGSNRINQLVRSEAQTGISLLQHHERPTVTAPLRRNDMMNSSRQNPQNGNVQDENRPEHVYDQPIHVPGSSLDRQKLEIEIRRHRNLNIQLRDTIAHLDYAEESVHTTKRQLEEKISEVNNFKKELIEEFKKCKKGVEEEFEKKFEKIKEDYDELYEKLKRDQRDLERDQKILKKGTGERNKEFTETIATLRDKLRASETKNAQYRQDIRVRDEKLKKKDEEIEKLQKDGNRLKSTLQTLEKRVKQLRTEKERDDKEKEMFAKVAMNRKTSNPVPPVLNQSVPISITSNGPSRHPSSSSLTTFRKPSTSNRERGVSWADEPNEQSLEAVPQEFLMMPVKEMPGKFGKCTIYRDSLGETSKVTDTIANGLLFEYSNGDLRWVNRQNAVNIYISAVDKTVRIDLPTYNISIIHTFQRQVEVLRPGNNITLISIKRREVRTDLIYQNGMYKTEIFNRDGRYVTKDFSNQEVSRKYNPGTHTYRDNQCRYVLVTDYNDFELVEPEFRLRWYQGDPTGLNNQYILKIIGRPECSEKTLRLEVNLSTCEGTLETAEMIGDKRRKTTLFQWKK", "modifications": "full-length GFP fusion", "notes": "C. elegans WT SAS-4 (aa 1–808) GFP fusion, RNAi-resistant transgene"}, "B6": {"name": "Drosophila melanogaster Ana2 (dSTIL) residues 1–47 (domain or fragment, UniProt Q9XZ31 1-47, looked up)", "chain": "MFVPETEDMLPRLAPRPSAAVPMGHTNEIIGPTVPEVSILFGQPPQD", "notes": "Ana2 (dSTIL), Drosophila melanogaster, residues 1-47, the region equivalent to CR2; codon-optimised gene; no linker or residues left by tag cleavage are told; also called dSTIL^1–47; dSTIL peptide; not shown: His tag, N-terminal, cleaved"}, "B7": {"name": "Danio rerio STIL^408–428 (peptide)", "chain": "GSGVEDEDLSPRPSPNPHPVSQENLYFQ", "notes": "remnant of the cloning and protease cleavage sites at the N-terminus; remnant of the cloning and protease cleavage sites at the C-terminus; used for crystallisation only; also called STIL peptide; source: E. coli C41 BL21 (DE3), purified (NiNTA, proteolytic cleavage of the His-lipoyl domains, ion exchange); not shown: His-tagged lipoyl domain (Bacillus stearothermophilus dihydrolipoamide …)"}}, "key": {"[1]": {"target": "T1, Danio rerio CPAP^937–1124 TCP domain, WT (Danio rerio, UniProt E7FCY1 937-1124)", "T1 construct": "remnant of the cloning and protease cleavage sites at the N-terminus; also called TCP domain of D. rerio CPAP; G-box; source: E. coli BL21 (DE3) Rosetta, purified (NiNTA, proteolytic tag cleavage, optionally size exclusion, ion exchange); not shown: His tag, N-terminal, cleaved", "T1 sequence": "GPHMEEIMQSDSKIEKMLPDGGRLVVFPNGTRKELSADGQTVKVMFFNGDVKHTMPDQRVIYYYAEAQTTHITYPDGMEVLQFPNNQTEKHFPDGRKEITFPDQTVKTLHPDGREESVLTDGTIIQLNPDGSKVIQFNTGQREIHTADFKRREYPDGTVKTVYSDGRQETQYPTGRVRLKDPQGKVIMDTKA", "experiment": "ITC; STIL peptide in syringe titrated into CPAP TCP domain in cell; 50 mM HEPES pH 7.5, 100 mM NaCl, 25°C; single set of binding sites model, N as a variable; CPAP typically 40 μM, STIL typically 700 μM", "conditions": "both partners purified"}, "[2]": {"test_system": "sas-4(RNAi) C. elegans embryos", "experiment": "Monopolar spindle assay after sas-4(RNAi)", "format": "in vivo", "conditions": "second division", "description": "(§1) C. elegans strains carrying single-copy sas-4 transgenes were generated using MosSCI ([Frøkjær-Jensen et al., 2008]). To render the transgenes RNAi-resistant, a 500 bp region at the 5′ end of the sas-4 genomic sequence was re-encoded. The engineered sas-4 sequence was cloned into pCFJ151 with the promoter and 3′ UTR from sas-6, as well as a C-terminal GFP tag. pCFJ151 contains homology arms that direct transposase-mediated insertion of intervening sequence into the ttTi5606 Mos1 site on Chromosome II. Transgene integration was confirmed by PCR of regions spanning each side of the insertion. The genotypes of the strains used are: unc-119(ed9)III; ltSi85[pOD1550; Psas-6::SAS-4 reencoded::GFP; cb-unc-119(+)]II for WT SAS-4; and unc-119(ed9)III; ltSi177[pOD1551; Psas-6::SAS-4(1-556) reencoded::GFP; cb-unc-119(+)]II for SAS-4^ΔTCP.\n(§2) Double-stranded sas-4 RNA was generated as described ([Oegema et al., 2001]) using DNA templates prepared by PCR. For experiments to quantify monopolar spindle formation, L4 hermaphrodites were injected with dsRNA and incubated at 20°C for 40 hr prior to dissection for imaging. For lethality assays, worms were maintained at 20°C. L4 hermaphrodites were injected with dsRNA and singled 24 hr post-injection. Adult worms were removed from the plates 48 hr post-injection, and hatched larvae and unhatched embryos were counted 24 hr later. […]"}, "[3]": {"test_system": "sas-4(RNAi) C. elegans embryos", "experiment": "Embryonic viability after sas-4(RNAi)", "format": "in vivo", "description": "as §1\nDouble-stranded sas-4 RNA was generated as described ([Oegema et al., 2001]) using DNA templates prepared by PCR. For experiments to quantify monopolar spindle formation, L4 hermaphrodites were injected with dsRNA and incubated at 20°C for 40 hr prior to dissection for imaging. For lethality assays, worms were maintained at 20°C. L4 hermaphrodites were injected with dsRNA and singled 24 hr post-injection. Adult worms were removed from the plates 48 hr post-injection, and hatched larvae and unhatched embryos were counted 24 hr later."}, "[4]": {"test_system": "centrioles in sas-4(RNAi) C. elegans embryos", "experiment": "Localisation of SAS-4::GFP in absence of endogenous protein", "format": "in vivo", "description": "as §1, §2"}, "[5]": {"experiment": "SEC-MALS / dynamic light scattering of CPAP TCP domain", "format": "physicochemical"}, "[6]": {"target": "T2, Drosophila melanogaster DSas-4 (dCPAP) TCP domain, residues 700–901 (Drosophila melanogaster, UniProt Q9VI72 700-901)", "T2 construct": "source: E. coli B834 (DE3), purified (NiNTA, proteolytic tag cleavage, size exclusion), as a fusion with dSTIL^1–47", "T2 sequence (looked up)": "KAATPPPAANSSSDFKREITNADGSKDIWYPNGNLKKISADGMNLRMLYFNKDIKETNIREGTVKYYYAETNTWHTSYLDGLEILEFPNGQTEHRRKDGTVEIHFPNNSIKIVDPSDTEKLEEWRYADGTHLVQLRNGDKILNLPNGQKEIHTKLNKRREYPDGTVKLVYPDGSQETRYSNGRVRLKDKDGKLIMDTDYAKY", "experiment": "crystal structure; D. melanogaster dSTIL^1–47 fused to the N-terminus of dCPAP^700–901 on one chain; sitting drop, Morpheus screen", "conditions": "both partners purified"}, "[7]": {"target": "T1, Danio rerio CPAP^937–1124 TCP domain, WT", "experiment": "crystal structure; D. rerio CPAP^937–1124 with D. rerio STIL^408–428, protein/peptide mixture; 100 mM Tris pH 8.5, 200 mM CaAcetate, 17% PEG-2000 MME, 19.5°C", "conditions": "both partners purified"}}}
{"molecule": "B1", "values": [{"measurement": "Kd", "setting": "[1]", "value": 540, "unit": "µM"}, {"measurement": "dH", "setting": "[1]", "value": -6.3, "unit": "kcal/mol"}, {"measurement": "stoichiometry N", "setting": "[1]", "value": 0.97}]}
{"molecule": "B2", "values": [{"measurement": "rescue of monopolar spindle phenotype", "setting": "[2]", "value": "not by the ΔTCP transgene"}, {"measurement": "rescue of embryonic viability", "setting": "[3]", "value": "not by the ΔTCP transgene"}, {"measurement": "centriole targeting", "setting": "[4]", "value": "did not, and instead exhibited a diffuse accumulation in the pericentriolar material"}]}
{"molecule": "B3", "values": [{"measurement": "Kd", "setting": "[1]", "value": 4, "unit": "µM"}, {"measurement": "dH", "setting": "[1]", "value": -11.3, "unit": "kcal/mol"}, {"measurement": "stoichiometry N", "setting": "[1]", "value": 0.98}]}
{"molecule": "B4", "values": [{"measurement": "oligomeric state in solution", "setting": "[5]; SAXS and SEC-MALS", "value": "predominantly monomeric in solution"}, {"measurement": "molar mass (averaged across central 50% of peak)", "setting": "[5]; SEC-MALS, injected at approximately 460 μM, 25 mM bis Tris pH 7.2, 100 mM NaCl, theoretical monomer 22 kDa", "value": 23, "unit": "kDa"}, {"measurement": "Rh (hydrodynamic radius)", "setting": "[5]; dynamic light scattering with SEC, intermediate concentration, 25 mM bis Tris pH 7.2, 100 mM NaCl", "value": "2.9 ± 0.15", "unit": "nm"}]}
{"molecule": "B5", "values": [{"measurement": "rescue of monopolar spindle phenotype", "setting": "[2]", "value": "fully rescued"}, {"measurement": "rescue of embryonic viability", "setting": "[3]", "value": "fully rescued"}, {"measurement": "centriole targeting", "setting": "[4]", "value": "targeted to centrioles"}]}
{"molecule": "B6", "values": [{"measurement": "binding result", "setting": "[6]", "value": "binds"}]}
{"molecule": "B7", "values": [{"measurement": "binding result", "setting": "[7]", "value": "binds"}]}
